Source: patent publication US20180022822A1, “NOVEL ANTI-FIBROBLAST ACTIVATION PROTEIN (FAP) BINDING AGENTS AND USES THEREOF” (Mabimmune Diagnostics AG, priority 2016, published 2018)
One block for each molecule: values may come before it.

How the values were obtained:
[1] = biological target: T1, directly coated FAP (FAP) (Homo sapiens, UniProt Q12884); assay: direct ELISA on directly coated FAP; format: binding; settings: ELISA, varying antibody concentrations
T1 sequence (Q12884 1-760): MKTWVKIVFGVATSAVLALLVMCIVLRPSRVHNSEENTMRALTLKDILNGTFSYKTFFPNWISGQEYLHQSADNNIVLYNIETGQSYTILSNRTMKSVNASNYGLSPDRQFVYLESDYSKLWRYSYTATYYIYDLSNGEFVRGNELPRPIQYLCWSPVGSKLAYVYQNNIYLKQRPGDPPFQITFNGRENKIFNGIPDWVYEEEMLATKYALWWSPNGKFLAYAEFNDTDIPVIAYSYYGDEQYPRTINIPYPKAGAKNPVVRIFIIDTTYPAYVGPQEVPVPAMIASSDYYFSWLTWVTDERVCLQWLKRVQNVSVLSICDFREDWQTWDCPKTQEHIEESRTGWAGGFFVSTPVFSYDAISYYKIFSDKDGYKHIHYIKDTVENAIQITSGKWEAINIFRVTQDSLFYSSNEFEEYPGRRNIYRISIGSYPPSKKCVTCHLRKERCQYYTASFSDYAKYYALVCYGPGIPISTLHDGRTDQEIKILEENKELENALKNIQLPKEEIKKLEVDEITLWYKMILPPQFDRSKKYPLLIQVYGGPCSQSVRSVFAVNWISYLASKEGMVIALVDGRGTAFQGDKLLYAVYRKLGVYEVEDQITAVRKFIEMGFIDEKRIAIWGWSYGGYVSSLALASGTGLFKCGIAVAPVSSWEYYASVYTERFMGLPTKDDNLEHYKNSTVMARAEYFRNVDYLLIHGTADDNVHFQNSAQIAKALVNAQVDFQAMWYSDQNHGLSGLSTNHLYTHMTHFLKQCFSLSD
Protocol: (§1) ELISA assays were performed with varying antibody concentrations to validate the binding of the exemplary antibodies of the present invention to FAP and to be able to determine their half maximal effective concentration (EC50). For the exemplary recombinant human NI-206-18H2, NI-206-20A8, NI-206-6D3, ‘NI-206-14C5, NI-206-34C11, NI-206.82C2, NI-206.59B4, NI-206.22F7, NI-206.27E8, NI-206.12G4 and NI-206.17A6 antibodies, 96-well microplates (Costar, Corning, USA) were coated with FAP, with a mixture of the 3 peptides or with BSA (Sigma-Aldrich, Buchs, Switzerland) diluted to a concentration of 5 μg/ml in carbonate ELISA coating buffer (15 mM Na2CO3, 35 mM NaHCO3, pH 9.4) for the direct ELISA. For the capture ELISA, the microplates were coated with mouse anti-His monoclonal antibody (Clontech) diluted to a concentration of 3 μg/ml in PBS, the plates were then blocked, FAP or BSA were diluted to a concentration of 2 μg/ml in PBS and added to the plates to be captured. The binding efficiency of the antibodies was then tested.
The EC50 values were estimated by a non-linear regression using GraphPad Prism (San Diego, USA) software. […] The binding of NI-206.12G4 towards sFAP was not tested.

BSA = biological target: T2, BSA (Bos taurus, UniProt P02769); assay: ELISA control binding to BSA; set-up: species or system bovine
T2 construct: purchased Sigma-Aldrich
Protocol: as §1

[2] = biological target: T3, recombinant human FAP (sFAP, FAP) versus CD26 and unrelated human antigens (A-N) (Homo sapiens, UniProt Q12884); assay: binding specificity ELISA against FAP versus unrelated human antigens; settings: detection antibody at 20, 4 and 0.8 nM
T3 sequence (Q12884 26-760 limits assumed): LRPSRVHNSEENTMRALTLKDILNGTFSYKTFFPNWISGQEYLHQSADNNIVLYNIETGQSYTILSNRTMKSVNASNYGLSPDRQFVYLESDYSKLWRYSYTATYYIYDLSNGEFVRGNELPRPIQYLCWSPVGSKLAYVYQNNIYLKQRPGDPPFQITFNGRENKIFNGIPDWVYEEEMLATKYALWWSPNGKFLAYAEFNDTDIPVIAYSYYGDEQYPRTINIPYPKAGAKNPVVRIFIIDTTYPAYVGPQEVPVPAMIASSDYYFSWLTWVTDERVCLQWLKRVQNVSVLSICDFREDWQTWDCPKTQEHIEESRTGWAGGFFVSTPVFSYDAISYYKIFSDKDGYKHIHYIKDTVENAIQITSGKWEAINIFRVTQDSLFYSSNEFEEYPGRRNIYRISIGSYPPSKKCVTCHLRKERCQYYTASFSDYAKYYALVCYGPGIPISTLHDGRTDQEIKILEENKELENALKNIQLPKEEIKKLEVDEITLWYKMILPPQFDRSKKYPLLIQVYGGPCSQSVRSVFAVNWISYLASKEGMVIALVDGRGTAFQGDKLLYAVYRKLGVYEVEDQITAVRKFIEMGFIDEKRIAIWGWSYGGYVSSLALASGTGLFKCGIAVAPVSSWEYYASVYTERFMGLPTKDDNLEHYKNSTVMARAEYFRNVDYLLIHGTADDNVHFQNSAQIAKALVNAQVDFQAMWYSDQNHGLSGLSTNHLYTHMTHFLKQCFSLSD
Protocol: A mouse anti-6×-histidine tag antibody (Clonetech) was coated at a concentration of 3 μg/ml in PBS to a 96 well ELISA plate, the plates were then blocked with 5% BSA in PBS, and enzymatically active recombinant human FAP with an N-terminus 6× histidine tag was added to the plates to be captured. The binding efficiency of NI-206.82C2, NI-206.18H2, NI-206.20A8 and NI-206.6D3 (at 20 nM, 4 nM, and 0.8 nM) against sFAP and of NI-206.18H2, NI-206.20A8 and NI-206.6D3 against FAP as well was then tested by 1 hour incubation, followed by washing with PBS and detection with an HRP-labelled goat anti-human antibody (Jackson Immunoresearch) using a colormetric assay. To assess NI-206.82C2, NI-206.18H2, NI-206.20A8 and NI-206.6D3 binding other targets, recombinant human CD26 (only in case of NI-206.82C2) and fourteen other unrelated recombinant human proteins (A-N) were individually added to a 96-well ELISA plate in triplicate, and the binding efficacy of NI-206.82C2 was evaluated. (FIG. 7A to D)

T2 sequence (P02769 25-607): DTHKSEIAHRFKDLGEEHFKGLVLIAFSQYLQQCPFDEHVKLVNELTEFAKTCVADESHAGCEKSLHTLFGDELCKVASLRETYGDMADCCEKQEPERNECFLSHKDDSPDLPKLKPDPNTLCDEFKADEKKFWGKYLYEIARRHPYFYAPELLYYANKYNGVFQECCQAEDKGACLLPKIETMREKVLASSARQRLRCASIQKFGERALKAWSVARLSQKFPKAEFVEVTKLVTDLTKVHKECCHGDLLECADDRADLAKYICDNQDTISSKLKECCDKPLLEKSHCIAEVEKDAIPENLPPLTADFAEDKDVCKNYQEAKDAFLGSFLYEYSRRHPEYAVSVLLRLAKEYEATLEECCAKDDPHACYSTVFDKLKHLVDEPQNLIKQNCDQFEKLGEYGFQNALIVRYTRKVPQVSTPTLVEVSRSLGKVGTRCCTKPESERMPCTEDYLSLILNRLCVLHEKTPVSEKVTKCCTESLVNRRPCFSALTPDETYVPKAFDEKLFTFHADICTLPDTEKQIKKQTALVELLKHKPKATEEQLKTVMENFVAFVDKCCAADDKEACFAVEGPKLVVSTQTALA

binding to BSA (BSA): does not bind | colorimetric ELISA signal against FAP versus panel of unrelated human antigens [2]: significantly greater
B1: NI-206.18H2: human-derived recombinant anti-FAP antibody; VH SEQ ID NO: 41, VL SEQ ID NO: 43 (antibody, listed as Homo sapiens, V domains shown)
VH: QVQLQESGPRLVKPSETLSLTCTVSGYSISNGYYWGWIRQPPGQGLEWIASVWHSGNTYHNPSLKSRVTILVDTLKNQFSLNLKSVTAADTALYYCARSYTRNDVGAFETWGQGTMVTVSS
VL: SYELTQPPSVSVSPGQTARIACSGDELPKRYAYWYQQKSGQAPVLVMYEDTKRPSGIPERLSGSSSGTVTTLTISGAQVEDEADYYCYSTAPSGNHTFVFGTGTRVTVL
binding to the directly coated FAP [1]: specifically, strongly and similarly bind

binding to the directly coated FAP [1]: strongly and similarly bind | colorimetric ELISA signal against FAP versus panel of unrelated human antigens [2]: significantly greater
B2: NI-206.6D3: human-derived recombinant anti-FAP antibody; VH SEQ ID NO: 49, VL SEQ ID NO: 51 (antibody, listed as Homo sapiens, V domains shown)
VH: EVQLVESGGGLVKPGESLRLSCAASGFTFSKAWMNWVRQGPGKGLEWVGRVKSKTDGGTTDYAAPVKGRFTISRDDSKDTVFLQMNSLKTEDTAVYYCSIQFIVVGDRGRDDQYMDVWGKGTTVTVSS
VL: SYVLTQPPSVSVSPGQTARITCSGDALPKQYAFWYQQKPGQAPVIMIYKDNQRPSGIPERFSGSSSGTTVTLTISGVQTEDEADYYCQSADSTNTHVVFGGGTKLTVL

binding to the directly coated FAP [1]: less efficiently | binding to BSA (BSA): does not bind | colorimetric ELISA signal against FAP versus panel of unrelated human antigens [2]: significantly greater
B3: NI-206.82C2: human-derived recombinant anti-FAP antibody; VH SEQ ID NO: 2 or 4 (PIMC), VL SEQ ID NO: 6 (antibody, V domains shown)
VH: QVQLQQSGPGLVKPSQTLSLTCAISGDSVSSNSVTWNWIRQSPSRGLEWLGRTYYRSKWYNDYAVSVKGRITINPDTSKNQFYLQLKSVTPEDAAVYYCARDSSILYGDYWGQGTLVTVSS
VL: QAVLTQPSSLSASPGASASLTCTLPSGINVGTYRIFWFQQKPGSPPQYLLSYKSDSDNHQGSGVPSRFSGSKDASANAGILLISGLQSEDEADYYCMIWHSSAWVFGGGTKLTVL
